{"source": "the DeepSol protein solubility set", "data": [{"test": "soluble on expression in E. coli; label from the status in PepcDB or PDB records", "values": [{"sequence": "MGSDKIHHHHHHSPTQELNSAKIISTLTAHYGERAGLRAKAWFQVLSKAEHVDEQEKLKMVNQFFNLFRFVEDKTLWGDSNYWATPMEFIGVNGGDCEDFSIAKYFTLLQLGVSEDKLRITMVKATTMNQYHMVLAYYPTPSSIPLVLDNLDREIKPATQRNDLLPVYSFNGKQLWLNKEKGRGVLAGSSSRLKKWNDLKHRLGVDRLRQPKLKME", "soluble on expression in E. coli": "not soluble"}, {"sequence": "MGSDKIHHHHHHSTPTEFKRPSLKVLFGSFVGEYPGIIAQEKGFFKAQGVDVELIHKRYIQLEQANFSAGKYDGMTSSLGNLIILSAINLDIQGVIVIDESTGADVVVAQPQIKTVADLKGKKLGANLGGFSELFITEMLKTNNLNSNDVNLVRLEALKIPQNLKKNFIQAGHTWEPYLSEAMKIGGNILFTSKQTPGLILDLMIFRGDVIRDRPGDIRAFVQGWLQASEYWKENVQEGNTIISKALKIPSNTISLEGISLTSLDENQNLFQFSNPNSIDKIAKVYADFFIRAGNLTRIPELKSLFNSSFLNPAS", "soluble on expression in E. coli": "not soluble"}, {"sequence": "MGSDKIHHHHHHVDIQALKKVSELDVFSLLVFKLIYETGFANFAAKELAVSAPKISRCLTSLRAIFNDELFFRRQQGLKPTPLAERLYQPVCQLCDMVSQIERVADDRLNHHQTPILHIAVSPSIITSVAIALSKLPRDVIGKVKLHSWQADTEELIYNGELDFGIGFETQDTHGLEAYPIANVTSLCVVGNTNHLFWAGAEQIKLEDIIQHPIVYLRCKGFNNRIDPLELYCQTHGLLLEDIECARKLEDWYWHILTMDSLAITICNEGSFAQQIPQLRVERLPQSEFTKLNSVMAMPSYCLIERAEHYRRYSLNVKEMIIDIIKSLLV", "soluble on expression in E. coli": "not soluble"}, {"sequence": "MGSDKIHHHHHHVDRGCQWRGDDSLRGQRHERRGQLRLMGAAEYASQVRTLPKLGLGVGLRNEHFNHILSERPNVDWFEAISENFMDSGGRPGWVIRQIAEHYPIVLHGVSLSIGSADPLNEGYLARLKLLADDVQAKWVSDHLCWTGVLSINSHDLLPLPLNEETLGHVTSRVHHVQEVLGRPLILENPSTYASFQTSDIPEPEFLRALSDATGCGLLLDVNNVYVSCFNDGTDPLEYLEKIPFEKVIQMHLAGHTNCGEFLLDTHDQPVTRGVWELFRLAWQRTGGAATLLEWDGDVPAFEDLHAEVLKAREFMAGEVEALHLYQGAAAPGRARVSNPVDHIVSPVRGHSRLDA", "soluble on expression in E. coli": "not soluble"}, {"sequence": "MGSDKIHHHHHHVEFIVGGATGEFYFLEMNTRLQVEHPVTEMITGLDLVEQMIRVAYGEKLKITQDDVKLQGWSMEARVYAEDPFRNFLPSTGRLTRYQPPAESQHVRVDTGVYEGGEISMFYDPMIAKLITYGPTRETAIAHMRQALDEYHIRGLSHNIPFLASLFSKERFVKGNLTTNFIAEEYPNGFTSSDLPSDDPTTLIAVAAAMKRRIVERNIQISGQFPGHEMKAPTEWTVLIGGTYHEVDVHPAPGGYAVVVEGEAVEVKTDWQIGDPLIRAKVDDRMVCVQVDRTGVSFRLSHSGVQAEVWVLTRPTAKLHKLMPFKAPPDMSKYLLSPMPGLLAKLLVEEGQEVKAGEPLAVVEAMKMENILKAERDAKIAKVHAKSGDSLAVDQKIIEFAS", "soluble on expression in E. coli": "not soluble"}, {"sequence": "MGSDKIHHHHHHVILSDWLAARLDRSAAEPVYRQTLRLMQQAILTGQLPPGTKLPSSRTLAQDLGIARNTVLHVYDQLTAEGYVISTTGSGTYVADTRPDTAAVNARKKPVVVSGIETDADAAIETTRRPKRDLGDLSTRGRRLIDTAGVSAKQWGAFMPGVPDVAEFPARTWSRLQARLWKEANPDLLTYAPGGGYRPLRRALSDYLRVARSVNCTPDQIIITTGIHQSIDLAVRLLTDVGDRAWVEEPCYWGARSVLQSSGITLVPVPVDDEGLNPREQDLQQPPRLALVTPSHQYPLGMVMSLARRRTLLEYARQHNVWIIEDDYDSEFRYGSRPLASLQGLDDAGQVIYVGSLGKMLFPGLRIGYMIAPEHLVDTFRTGVAELYREGQLMQQAVMTDFIMDGHLTSHVRRMRALYGERRQILIDAITARFGSELPVMGDEAGLHLVLGLPDHANDRAVTAAAYDAGVIVRPLASYYSGDTPARRGLLLGYACVPNDRIGPAFDTLARVIEQTALKTPTRAA", "soluble on expression in E. coli": "not soluble"}, {"sequence": "MGSDKIHHHHHHVITLWGRLNSHNVKKVAWALIEMDLPHQRRDIGGQFGYTTDYLAKNPNRMVPMIEEGELALWESNAILRYLADRHAPAFRSDDPVVRAQGDKWMDWQFHFADAQRDAFLGCVRHGKDASDPAVATSATAAAGMMAILDEELARRPWLSGDRFGIADIPMGVYAHTYHSLPIERPDLPHLADWYARLRTRPGYASQVMIPLI", "soluble on expression in E. coli": "not soluble"}, {"sequence": "MGSDKIHHHHHHVKRFDWYTEIHRLDAEADCRRITEILTTHEFPWDIEQALSLALYRTYAVPSIGQLLAETREFLDRTQRRSDDTALILTEIMRHGFEPGRGRDALRRMNQMHRSYDISNDDYLYVLSTFVVMPVRWINDLGYGWRRLTEHEITANTNYYRLLGKHMGIKEIPETYDEFYELFDSYEIAHFGYSEGGRAVSDATLRLMVDTVPRWQQPVFRKFTMALLDDRLIQAFRYDPPSRFWRTAAHLAMWLRAKIVRFMPPRVEPYRIENNPKIKSYPNGYDPRRIGTFPKGCPVPHDMVTIEIPETGARIPAPGQELAPQGQDARA", "soluble on expression in E. coli": "not soluble"}, {"sequence": "MGSDKIHHHHHHVLINQQYTRHGPDYRFGEQVTFLDVKQTFGFSHVRVGRWVTRDESRLAADLVFDSLADLAFILKLPPLKLGLRETVSLAFGHGGQKGVQAHYAPAARELALAKNAGAGALAHEFWHAFDHYIAAKSFKSSSKRFQCASDLWLSDLPIIEHPLNARLSEIFKVTFLSGNGDEPHDYVRRAIALDKKHGMQYFARPTEMMARAFEACIESYDDISNPYLVSGTRFSAMAKEGAYPDEAHRKVIFQALINYFEPLGMALSKHPLG", "soluble on expression in E. coli": "not soluble"}, {"sequence": "MGSDKIHHHHHHVLSTANITMQFGPKPLFENISVKFGGGNRYGLIGANGCGKSTFMKILGGDLEPSSGNVMLEPNIRLGKLRQDQFAYEDVRVLDVVMMGHAEMWAAMTERDAIYANPDATDDDYMHAAELEAKFAEYDGYTAEARAGELLLGIGIAIENHNGPMSNVAPGWKLRVLLAQALFSKPDVLLLDEPTNNLDINSIRWLEDVLNQYNSTMIIISHDRHFLNQVCTHMADMDFGTLKVYPGNYDDYMLASTQARERQQNANAKAKERVADLQDFVRRFSANKSKARQATSRLKMIDKIKIEEFKPSSRQNPFIRFEYEKKLHNIAVVAEKISKKYERTIFNDFSISVQPGERIAIIGENGAGKTTLLRSLLGKLELDHGTVKWAENANIGYMPQDTYEEFPDDVTLMEWIDVYRKEGDDEQMVRGTLGRLLFNADDIRKSVKVLSGGEKGRMIWGKLMLGRHNVLLMDEPTNHMDMESIESLQIALDKFEGTLIFVSHDREFVSGLANRIIEVKTDGTLNDFGGNYEDFLLSQGVQ", "soluble on expression in E. coli": "not soluble"}, {"sequence": "MGSDKIHHHHHHVMKVLLYSEGKKLFSKSGVGIALKHQMSALDKVGVKYTTNEEDSFDIVHINTIGPGAERVIKKSKKLGIPIIYHTHTTYEDFRNSFTLSNAIAPWLRKRLIKLYSSADFLISPTEYAKKLIMNYGITLPIKAVSNGVDNKKFTRSKSLAESFLSENHIRKPLVVSVGLPFERKGVIDFCQIADTRKDLTFYWFGAKISSLLPAKIRRLLKNPPDNVKFPGFIPQEMIIGPYSACDVFLFPSYEETEGIVVLEALATEAPIVLRDIPVYSEWMKHEENCLKGKDNQEFIKHIDRLLESNNLRKKLSSCGKETALERDLSIIGQKLKNIYLEVLDKKQ", "soluble on expression in E. coli": "not soluble"}, {"sequence": "MGSDKIHHHHHHVNELSADVVILGGGLVGMTLAIGLAKAGISSHVVDNSDPAAQTAEGFDGRASAISTASWNLYANLGMADELAPKGCPIEAIAVTDAMKPGRIDFKPGEGDGSLGRMYANRDLRIAMYAAAAREEAITFHTNANVIHRERGEHGVSVTLADGRILKGRLLVGAEGRRSPTRDEAGFTPARWDYGHRAIIAGLTHEKPHGNVAWEVFYPAGPFALLPLLDDEDGSHRSALVWTVAEKDASAVLAMPEPMFLDEVSKRMHEIFGEIRLASPRSSYPLNFHHTARIVEQRLALVGDAAHGMHPIAGQGLNVGLRDVAALVEVLADGVRLGLDVGDAQLLARYERWRAADTFMVATATDVLTRLFGLPGRVPSAIRRLGMAGVQRMGPLKRWFMDEARGMSGDLPKLLRAA", "soluble on expression in E. coli": "not soluble"}, {"sequence": "MGSDKIHHHHHHVQVVSISSLKGGVGKTSVTTGLASAALAAGIPTLVVDLDPHADASTALGVQPDEQLDIGRMLKSPRRARLSQNVVTSGWVARENYNGARPAVLDVAVGSAYTGIYDRPDLGRRDLRRLSAVLAGTDKYQLILVDCPPSLNGLTRMAWSASDKVALVAEPGLFSVAGTERTMRAIQLFRQEFAPNLSPAGIIANRVRSGSSEHAFRLAEMQSMFGELLLTPYIPEQANWQQIQGAAHSVHHWPGDSAKNAASLFNTLLDNLMASNDAGSAGALRERSLR", "soluble on expression in E. coli": "not soluble"}, {"sequence": "MGSDKIHHHHHHVRFATKFDLLSHIRLNAALTSARFDAEQGLWLLRLENGEQLKASFFICSAGPLSEPRYPDIPGMDTYEGRLFHSARWDHDYPLNGKRVAVIGTAASAVQIIPHIAPLAARLYVCQRSPNWIIPRLNHVYAPWEKALFRLKPIAKTNRFLLYWLHEMNRLSFNPGGFMARIGRELAEWHLRRQVIDPRLRGALRPGYPLGCKRVLLSNDYYPTLMRPNVELIDTPIDRIDPGGIVTRDGQKREVDVIICATGFNVKRMLSVEIRGLQGYRLNEAWAREPKAYQGVTVASFPNLFILLGPNTGQGHTSAILFIEAQVNYALKCIQEIARQQKRFLSVKPEAMNRYNEELQKTLSTSVWAAGCRSWYKTESGKIIGIYPGFSFQYAKQLREPRFEDYVMC", "soluble on expression in E. coli": "not soluble"}, {"sequence": "MGSDKIHHHHHHVRNYTYRYLNTIALPMETVRLISRINEYKGKQDLYKQQAPQVLDTLRDVAVIQSTKASNAIEGIVVTESRLHTIMSKSADPADRSEAEIAGYRDVLNLIHASARDIPINANVLLQLHKELYKFVPVEGGRWKNVDNEISESFPDGTRRTRFVPVPAFETPASVQALCDSLRERRQQEDVDPLILTSLFVLDFLSIHPFNDGNGRMSRLLTLLLLYQEGFEVGRYISLEKIVESRKEDYYESLRLSSIHWHQNQQDPFPWVNYLLSTILAAYKELEDRVGLITTGNQNKAGRIRQFVESRITPFTKADVRNACPDVSEATINRLLRELRDEGLIKPSGRGRGAKWIKR", "soluble on expression in E. coli": "not soluble"}, {"sequence": "MGSDKIHHHHHHVSCDYFNRGLCQSCRLMSKPVTEQLLEKEARLTHLLGGLPVDERLAPVSGPEFGFRNKAKMVVMGAAHAPVLGIPGPDGQPVDLSHCPLYPQDMQALLLELTSFVRRAGIPPYRVDKAKGELKFILLTRSAVRGEFMLRFVLRSKDAIPRIERELPKLLADFPAIKVVSVNLQPVHMARLEGEEEIFLTQATRLDEVFNGVPLFIRPKSFFQTNPEVASRLYATAAKWVDELSPKSLWDLFCGVGGFGLHCANESLPVTGIEIEAEAIDCAKTSAAAMGLDNLSFAALDSTDFAMGQQAQEVPEVIIVNPPRRGIGEELCERLSAFGPRAIIYSSCNPETLAKDLALISGYRIARVQLFDMFPHSDHFEVLCLLLKEAACASAD", "soluble on expression in E. coli": "not soluble"}, {"sequence": "MGSDKIHHHHHHVSDSPLPDSETSAAAEFKVDNCALVLEGGGLRAIYTAGVLDAFLAAGIHFQYLVGVSAGAIYPASYLSRQMGRNLTIQQNFLADKRYMGLKHLLRTGNYVNTDFTYRRMAHELVPYDFDAFASSEAEFKVGAFNCLTGETDFFGMADFADHDTFLEVLIASSSLPFISKPTFIDGTPYLDGGIGAPIPLAQAREDGYKRQVVILTQEQDYRKSAFKAKWLAKRLYRRYPKVASALLARHQVYNQALDDLTKAQADGSALVLQPATPMGLSRLERDVSKVEAVYRRGLSEGEAFIPSLLAFIENC", "soluble on expression in E. coli": "not soluble"}]}]}
